First the molecules themselves.
B1: Plastid division protein PDV2 (Arabidopsis thaliana (Mouse-ear cress)), Q9XII1 (parent)
chain: MEDEEGIGLILARATELRLKISDCIDNSSTTVSDNGDGNEDLSPGEGRKSEIIGNQDKDFDSISSEDVDEAEAERLLRIRDALEALESQLASLQNLRQRQQYEKQLALSEIDYSRKMLLEKLKEYKGKDFEVLRETTTFAGERVDYENDLLLPPYPVHPPLSLGLDNNNGYLSHLPSKKKSDANGFGSGHVRNEAEAKSPNGGSGGSSHGVIRFLGSVAKIVLPIIGVISLLSASGYGPEMRKRGASLNLFGLLPHRATRGKRTPNQCPPGKVLVIEDGEARCLVKERVEIPFDSVVAKRDVTYGYG
partner: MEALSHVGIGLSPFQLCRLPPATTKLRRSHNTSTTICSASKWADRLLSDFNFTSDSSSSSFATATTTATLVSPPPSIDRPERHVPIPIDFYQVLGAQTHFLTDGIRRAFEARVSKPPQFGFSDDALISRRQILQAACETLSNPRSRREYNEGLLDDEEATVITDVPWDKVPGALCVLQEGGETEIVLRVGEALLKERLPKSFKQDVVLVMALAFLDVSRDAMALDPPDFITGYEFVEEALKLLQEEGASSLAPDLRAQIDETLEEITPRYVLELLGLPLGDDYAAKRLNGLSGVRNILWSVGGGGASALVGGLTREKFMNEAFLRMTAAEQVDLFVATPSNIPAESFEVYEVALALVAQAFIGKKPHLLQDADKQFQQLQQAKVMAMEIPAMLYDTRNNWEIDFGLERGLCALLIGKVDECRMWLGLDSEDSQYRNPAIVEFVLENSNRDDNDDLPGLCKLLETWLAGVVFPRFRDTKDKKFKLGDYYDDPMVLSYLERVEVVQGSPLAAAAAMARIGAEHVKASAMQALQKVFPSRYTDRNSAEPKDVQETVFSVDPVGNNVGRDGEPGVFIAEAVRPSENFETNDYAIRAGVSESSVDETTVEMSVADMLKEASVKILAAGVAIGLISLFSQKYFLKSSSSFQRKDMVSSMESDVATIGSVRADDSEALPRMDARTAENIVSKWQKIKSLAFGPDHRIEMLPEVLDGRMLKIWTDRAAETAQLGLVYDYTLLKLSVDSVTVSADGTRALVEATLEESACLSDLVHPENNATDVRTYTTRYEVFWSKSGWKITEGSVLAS

The assay covers variants of B1. Particulars: with arc6_arath ARC6, Q9FIG9.
In the case of MEDEEGIGLILARATELRLKISDCIDNSSTTVSDNGDGNEDLSPGEGRKSEIIGNQDKDFDSISSEDVDEAEAERLLRIRDALEALESQLASLQNLRQRQQYEKQLALSEIDYSRKMLLEKLKEYKGKDFEVLRETTTFAGERVDYENDLLLPPYPVHPPLSLGLDNNNGYLSHLPSKKKSDANGFGSGHVRNEAEAKSPNGGSGGSSHGVIRFLGSVAKIVLPIIGVISLLSASGYGPEMRKRGASLNLFGLLPHRATRGKRTPNQCPPGKVLVIEDGEARCLVKERVEIPFDSVVAKRDVTYGYD [G307D], the “effect of a mutation on the interaction” value is reported as “decreasing interaction”.

These data come from IntAct's records for PubMed 18812496.
